Measured values taken from paper PMC10406861.

Key:
[1] = target: Histone H2A-H2B dimer (H2B T112C labeled with Cy5.5) (X. laevis) (UniProt P06897)
[2] = target: Histone H2A-H2B dimer (H2B T112C labeled with Cy5.5) (X. laevis) (UniProt P06897); remark: listed apart in the source

rate constant of H2A-H2B exchange between nucleosomes containing H3KS56ac (three-color smFRET), in the presence of Nap1 [1]: 1380 M⁻¹ s⁻¹ | rate constant of H2A-H2B exchange between CpG methylated nucleosomes (three-color smFRET), in the presence of Nap1 [2]: 626 M⁻¹ s⁻¹
Substance: 6xHis-Yeast nucleosome assembly protein 1 (Nap1) (from UniProt P25293 1-417) (natural protein)
